Patent US11340233B2, “Universal method to capture and analyze ADCs for characterization of drug distribution and the drug-to-antibody ratio in biological samples” (priority 2016, dated 2022)

Experiments:
[1] = In vitro stability in cynomolgus monkey serum by total antibody and ADC ELISAs; type: in vitro ADME, Cynomolgus (Macaca fascicularis); details: 37° C., ELISA
Protocol: (§1) ADCs were spiked in sterile mouse, rat or cynomolgus serum at a concentration of 100 μg/ml. Aliquots of 100 μl were incubated at +37° C. in Protein LoBind Tube (Eppendorf, Montesson, France). At specific times (day 1, day 4, day 7 and day 11) samples were removed from the oven and stored at −20° C. until sample processing and analysis.
Four different Ligand Binding Assay (LBAs) systems were used to determine Total Ab or ADC concentrations for ADC1 and ADC2[19]. More precisely, an antigen-specific assay was used for ADC1 and a universal method for ADC2. For the ADC quantification, specific anti-drugs were used relevant to the payload of the ADC.
Briefly, standard microtiter plates (MSD, Gaithersburg, USA) were coated at a concentration of 2 μg/ml Goat anti Human IgG, Monkey adsorbed antibody (SouthernBiotech) for Total Ab or of 3 μg/ml mouse monoclonal antibody raised against the payloads (Epitope Diagnostic Inc.) for ADC assays in PBS. After an overnight incubation at 4° C., plates were treated with blocking buffer (3% MSD Blocker A (MSD, Gaithersburg, USA)) for 1 h at 37° C. In parallel, the standard curves (1000 ng/ml-0.488 ng/ml) using reference immunoconjugates (ADC1 or ADC2) were prepared in assay buffer (1% MSD Blocker in TBS+0.02% Tween 20). Serum samples were diluted to 1:1000 or 1:5000 in a separate 2-ml deep 96-well polypropylene plate in MSD assay buffer. Standards and samples were then loaded onto the assay plate and incubated for 1 h at 37° C. After washing with 1×PBS, the detection step was done using a 2.5 μg/ml solution of the biotinylated antigen for the ADC1 (in house preparation) or a goat anti-human Ig Kappa sulfo-tag solution (in house preparation) diluted to 1 μg/ml in assay buffer for ADC2. After a 30-min incubation at 37° C., and a washing step, the detection was allowed by adding 150 μl of a 2×MSD-read T buffer containing surfactant (MSD, Gaithersburg, USA) just before reading using MSD Sector Imager.
The amount of total antibody and ADC, in serum samples was evaluated in parallel by a quantitative sandwich ELISA. […]

[2] = In vitro ADC stability in cynomolgus monkey serum, immunoprecipitation, reduction and LC-MS; type: in vitro ADME, Cynomolgus (Macaca fascicularis); details: spiked 100 μg/mL, 37° C.
Protocol: as §1
ADCs were immunoprecipitated from sera using the following protocol. Briefly, 100 μl M-280 Streptavidin magnetics beads suspension were washed three times with HBS-EP buffer (0.01 M HEPES pH 7.4, 0.15 M NaCl, 3 mM EDTA, 0.005% v/v Surfactant P20) and incubated for 30 min at RT with the CaptureSelect™ Human IgG-Fc PK Biotin conjugate. Serum samples from stability studies were then added to the beads and incubated for 2 h at RT. After washing steps with HBS-EP buffer and HBS buffer (10 mM HEPES, 150 mM NaCl, 3 mM EDTA pH 7.6), the ADC was eluted with 0.4% TFA in water. After freeze drying, the samples were reconstituted and incubated with 34 mM DTT in denaturing buffer (6 M Guanidine, 0.1 M Tris, 2 mM EDTA pH 8.0) for 45 min at 56° C.
Acetic acid was then added to quench the reaction and samples were analysed by LC-MS.
Reverse phase separation was performed on an ultra-high performance liquid chromatography (UHPLC) system (Acquity UPLC H-Class Bio system, Waters) coupled to a Synapt G2si mass spectrometer, instrument control was performed using MassLynx® software (Waters).
The reduced samples were directly injected on a PLRP-S column (2.1×150 mm 8 μm, 1000 Å, Agilent) heated at 80° C. with a flow rate of 0.5 ml/min. Elution was performed with water as eluent A and acetonitrile as eluent B, both containing 0.05% TFA. The following elution gradient was applied, B was raised from 30% to 45% in 13 min and then from 45% to 95% in 2 min. The column was washed using 95% B and equilibrated using 30% B for 10 min. The autosampler temperature was set at 10° C. […]
Data were analysed using Biopharmalynx™ (Waters) software. […]

Substance: Brentuximab vedotin [ADC2]
- ADC level normalized against the total Ab concentration at each time point ([1]; 11 days): decreased mainly during the four first days
- ADC concentration ([1]; over the 11-day period): decreased during this period
- total Ab level ([1]; over the 11-day period): ~100 µg/mL
- average DAR ([2]; day 0): 4.5
- average DAR ([2]; day 4): 2.0
- average DAR ([2]; days 4 to 11): stable
